Source: patent publication US7455978

target: ω-fragment of β-galactosidase [β-galactosidase: P00722]; experiment: cell-based or functional assay

Sequence of MJ1267 (LivF)/α-fragment fusion protein (Q58663 1-257, tags or fused parts left off): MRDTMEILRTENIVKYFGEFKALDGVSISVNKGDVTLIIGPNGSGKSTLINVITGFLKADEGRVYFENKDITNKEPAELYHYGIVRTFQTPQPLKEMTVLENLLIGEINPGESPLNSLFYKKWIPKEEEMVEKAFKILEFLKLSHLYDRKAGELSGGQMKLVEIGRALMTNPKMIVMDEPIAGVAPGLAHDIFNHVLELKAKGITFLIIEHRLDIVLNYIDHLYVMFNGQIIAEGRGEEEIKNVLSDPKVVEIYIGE

Substance	β-gal activity, against the wild-type Aβ/α fusion [fold]	β-gal Activity (units/cell), ONPG hydrolysis in cell lysates [units/cell]
CFTR NBD1-B/α-fragment fusion protein (from UniProt P13569 404-644; P00722 7-58)	–	5
MBP G32D/I33P/α-fragment fusion protein (from UniProt P0AEX9 27-392; P00722 7-58)	–	14
MBP wild-type/α-fragment fusion protein (from UniProt P0AEX9 27-392; P00722 7-58)	–	102
MJ1267 (LivF)/α-fragment fusion protein (from UniProt Q58663 1-257; P00722 7-58)	–	12

Next, values leading:

β-gal activity, against the wild-type Aβ/α fusion [fold]	β-gal Activity (units/cell), ONPG hydrolysis in cell lysates [units/cell]	Substance
3	–	Aβ (1-42) F19P/α-fragment fusion protein (from UniProt P05067 672-713; P00722 7-58)
–	6	CFTR NBD1-D/α-fragment fusion protein (from UniProt P13569 419-655; P00722 7-58)
–	134	GST/α-fragment fusion protein (from UniProt P08515 1-218; P00722 7-58)
–	94	MBP G32D/α-fragment fusion protein (from UniProt P0AEX9 27-392; P00722 7-58)
–	46	MBP I33P/α-fragment fusion protein (from UniProt P0AEX9 27-392; P00722 7-58)
–	159	TRx/α-fragment fusion protein (from UniProt P0AA25 1-109; P00722 7-58)
